Results reported in patent publication US20160145321A1.

Experiments:
Assay in all cases: cell-based or functional assay
[1] = biological target: G protein of RSV A/Long (virus, ATCC Cat. No. VR-26) (Respiratory syncytial virus A/Long) (UniProt P20895)
[2] = biological target: G protein of RSV B/18537 (virus, ATCC Cat. No. VR-1580) (Respiratory syncytial virus B/18537) (UniProt P20896)
[3] = biological target: G protein of RSV A/A2 (virus, ATCC Cat. No. VR-1540) (Respiratory syncytial virus A/A2) (UniProt P03423)

“CR9514 (an antibody based on 3D3, comprising the heavy and light chain variable region of 3D3)” was tested, and the Neutralization IC50 (plaque reduction assay, Vero cells) [1] was 0.017 µg/mL, the Neutralization IC50 (plaque reduction assay, Vero cells) [2] was 0.033 µg/mL and the Neutralization IC50 (plaque reduction assay, Vero cells) [3] was 0.0407 µg/mL.
